Experimental data from US20230279151A1 (Sanofi, published 2023).
Blank lines part the entries; values can stand above or below the binder they belong to.

Tests used:
[1] = molecular target: T1, human IL4 (IL004, Millipore) (human, UniProt P05112 25-153); experiment: SPR, Biacore 3000, antibody captured by anti-human Fc, IL4 as analyte; HEK293-FS, co-expressed with hFurin (SEQ ID NO 37)
T1 construct: Commercial recombinant antigen; also called Antigen IL4
T1 sequence (looked up): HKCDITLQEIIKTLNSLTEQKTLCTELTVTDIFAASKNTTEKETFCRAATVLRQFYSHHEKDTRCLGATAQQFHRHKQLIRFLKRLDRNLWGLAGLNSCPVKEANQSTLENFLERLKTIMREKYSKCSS
Description: (§1) Binding of antigens to the antibody constructs was measured using surface plasmon resonance (SPR) with a BlAcore 3000 instrument (GE Healthcare) with HBS-EP buffer (GE Healthcare). As antigens, human IL4 (IL004, Millipore) and human IL13 (IL012, Millipore) were used. The antihuman Fc capture antibody (human antibody capture kit, GE Life Sciences) was immobilized via primary amine groups (11000 RU) on a research grade CM5 chip (GE Life Sciences) using standard procedures. […] The tested antibody constructs were […] and injected at 100 nM concentration for 240 sec with a dissociation time of 300 sec at a flow rate of 30 µL/min. For human IL4 and IL13, a dilution series of 0.1 nM to 3 nM and 0.8 nM to 25 nM, respectively were used. Chip surfaces were regenerated with 2 min injects of the regeneration buffer provided with the capture kit. Sensorgrams were double-referenced with a blank chip surface and HBS-EP buffer blanks. Data analysis was performed using the BIAevaluation software v4.1.
(§2) The binding of the different bispecific Tandem-IgG constructs expressed in HEK293-FS or ExpiCHO cells as well as in vivo processed Tandem-IgG from the co-transfection with Furin variants was measured via surface plasmon resonance (SPR). The binding to the two human antigens IL4 and IL13 were compared to the binding characteristics of the individual monoclonal antibodies. […] In contrast, specific binding to IL13 was only detectable for in vivo processed Tandem-IgGs as well as the Tandem-lgG control comprising two LCs. […] Thus, processing of the linker sequence connecting the VLb (VL against IL13) at the inner position of the Tandem-lgG with the CK domain of the IL4 binding Fab at the outer position is required for a functional IL13 binding site. In vivo processing can thereby be mediated via endogenously expressed proteases or via co-transfected Furin variants.

[2] = molecular target: T1, human IL4 (IL004, Millipore); experiment: SPR, Biacore 3000, antibody captured by anti-human Fc, IL4 as analyte; HEK293-FS, co-expressed with hFurin-KDEL (SEQ ID NO 38)
Description: as §1, §2

[3] = molecular target: T1, human IL4 (IL004, Millipore); experiment: SPR, Biacore 3000, antibody captured by anti-human Fc, IL4 as analyte; HEK293-FS expression, processed in vivo
Description: as §1, §2

[4] = molecular target: T1, human IL4 (IL004, Millipore); experiment: SPR, Biacore 3000, antibody captured by anti-human Fc, IL4 as analyte; second block of the table (presumably ExpiCHO expression), processed in vivo
Description: as §1, §2

[5] = molecular target: T1, human IL4 (IL004, Millipore); experiment: SPR, Biacore 3000, antibody captured by anti-human Fc, IL4 as analyte; HEK293-FS expression
Description: as §1, §2

Kd [1]: 1.53 pM | koff [1]: 0.000211 s⁻¹ | kon [1]: 1.38e+08 M⁻¹ s⁻¹ | Kd [2]: 1.86 pM | koff [2]: 0.000299 s⁻¹ | kon [2]: 1.61e+08 M⁻¹ s⁻¹
B1: sLC-Tandem-(anti-IL4xanti-IL13)-His8-PCL1-huIgG1 (bispecific antibody)
light: DIQMTQSPASLSVSVGDTITLTCHASQNIDVWLSWFQQKPGNIPKLLIYKASNLHTGVPSRFSGSGSGTGFTLTISSLQPEDIATYYCQQAHSYPFTFGGGTKLEIKRTVAAPSVFIFPPSDEQLKSGTASVVCLLNNFYPREAKVQWKVDNALQSGNSQESVTEQDSKDSTYSLSSTLTLSKADYEKHKVYACEVTHQGLSSPVTKSFNRGECRRKR
chain: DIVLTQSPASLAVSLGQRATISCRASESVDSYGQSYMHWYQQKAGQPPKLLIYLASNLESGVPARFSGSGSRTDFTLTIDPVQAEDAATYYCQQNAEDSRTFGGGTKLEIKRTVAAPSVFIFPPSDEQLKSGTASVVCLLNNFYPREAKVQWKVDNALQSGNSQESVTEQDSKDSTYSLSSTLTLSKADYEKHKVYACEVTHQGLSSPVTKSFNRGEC
heavy: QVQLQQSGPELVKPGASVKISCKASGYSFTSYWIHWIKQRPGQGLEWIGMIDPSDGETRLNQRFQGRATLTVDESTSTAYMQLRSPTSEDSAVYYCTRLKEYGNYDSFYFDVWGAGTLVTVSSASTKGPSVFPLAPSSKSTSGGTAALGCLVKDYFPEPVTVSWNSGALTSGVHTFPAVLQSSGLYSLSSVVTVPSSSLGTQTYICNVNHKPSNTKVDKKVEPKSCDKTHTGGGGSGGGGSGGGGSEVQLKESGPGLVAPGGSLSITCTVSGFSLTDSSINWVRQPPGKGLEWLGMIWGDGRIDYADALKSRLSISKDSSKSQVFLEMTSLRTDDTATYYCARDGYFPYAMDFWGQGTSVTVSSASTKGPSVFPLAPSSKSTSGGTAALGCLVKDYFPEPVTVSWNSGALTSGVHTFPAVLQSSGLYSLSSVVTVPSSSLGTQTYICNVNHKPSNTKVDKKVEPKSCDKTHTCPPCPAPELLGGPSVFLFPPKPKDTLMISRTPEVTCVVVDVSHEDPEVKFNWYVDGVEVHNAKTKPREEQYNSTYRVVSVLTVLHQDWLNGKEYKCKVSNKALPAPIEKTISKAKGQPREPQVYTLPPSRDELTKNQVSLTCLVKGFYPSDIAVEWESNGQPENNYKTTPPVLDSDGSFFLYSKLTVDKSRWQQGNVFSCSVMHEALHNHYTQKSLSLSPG
notes: In both the single light chain was processed in vivo; also called 17, 13 with 37; 17, 13 with 38

Kd [3]: 1.05 pM | koff [3]: 0.000189 s⁻¹ | kon [3]: 1.79e+08 M⁻¹ s⁻¹ | Kd [4]: 1.33 pM | koff [4]: 0.000249 s⁻¹ | kon [4]: 1.87e+08 M⁻¹ s⁻¹
B2: sLC-Tandem-(anti-IL4xanti-IL13)-PCL2-huIgG1 (bispecific antibody)
light: DIQMTQSPASLSVSVGDTITLTCHASQNIDVWLSWFQQKPGNIPKLLIYKASNLHTGVPSRFSGSGSGTGFTLTISSLQPEDIATYYCQQAHSYPFTFGGGTKLEIKRTVAAPSVFIFPPSDEQLKSGTASVVCLLNNFYPREAKVQWKVDNALQSGNSQESVTEQDSKDSTYSLSSTLTLSKADYEKHKVYACEVTHQGLSSPVTKSFNRGECHRRRKR
chain: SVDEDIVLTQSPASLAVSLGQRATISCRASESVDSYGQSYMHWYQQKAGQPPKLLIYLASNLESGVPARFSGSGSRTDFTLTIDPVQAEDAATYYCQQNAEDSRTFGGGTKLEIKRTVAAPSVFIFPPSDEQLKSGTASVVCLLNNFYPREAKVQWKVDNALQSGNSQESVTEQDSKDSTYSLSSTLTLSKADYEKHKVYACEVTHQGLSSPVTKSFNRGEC
heavy: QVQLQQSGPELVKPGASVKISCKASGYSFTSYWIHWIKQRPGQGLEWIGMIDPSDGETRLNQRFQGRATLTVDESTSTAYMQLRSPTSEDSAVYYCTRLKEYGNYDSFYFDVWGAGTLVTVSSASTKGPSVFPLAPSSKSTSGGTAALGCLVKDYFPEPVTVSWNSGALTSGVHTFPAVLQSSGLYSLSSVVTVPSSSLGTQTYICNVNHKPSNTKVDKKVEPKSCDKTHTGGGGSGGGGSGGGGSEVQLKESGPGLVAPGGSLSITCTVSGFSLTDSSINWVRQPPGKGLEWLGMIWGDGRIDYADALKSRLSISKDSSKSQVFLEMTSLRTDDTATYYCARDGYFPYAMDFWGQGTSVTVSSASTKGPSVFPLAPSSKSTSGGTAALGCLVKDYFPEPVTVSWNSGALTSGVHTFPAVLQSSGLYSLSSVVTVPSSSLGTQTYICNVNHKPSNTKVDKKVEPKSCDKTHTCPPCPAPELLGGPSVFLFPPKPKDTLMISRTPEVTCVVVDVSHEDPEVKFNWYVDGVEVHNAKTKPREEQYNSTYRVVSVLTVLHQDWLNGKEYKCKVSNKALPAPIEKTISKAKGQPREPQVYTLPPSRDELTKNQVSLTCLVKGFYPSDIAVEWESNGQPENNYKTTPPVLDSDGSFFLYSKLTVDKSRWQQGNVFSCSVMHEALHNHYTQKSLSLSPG
notes: also called sLC-PCL2-Tandem-IgG; sLC Tandem-IgG-PCL2

Kd [5]: 2.32 pM | koff [5]: 0.000149 s⁻¹ | kon [5]: 6.39e+07 M⁻¹ s⁻¹
B3: Tandem-(anti-IL4xanti-IL13)-huIgG1 (bispecific antibody)
light 1: DIQMTQSPASLSVSVGDTITLTCHASQNIDVWLSWFQQKPGNIPKLLIYKASNLHTGVPSRFSGSGSGTGFTLTISSLQPEDIATYYCQQAHSYPFTFGGGTKLEIKRTVAAPSVFIFPPSDEQLKSGTASVVCLLNNFYPREAKVQWKVDNALQSGNSQESVTEQDSKDSTYSLSSTLTLSKADYEKHKVYACEVTHQGLSSPVTKSFNRGEC
light 2: not shown
heavy: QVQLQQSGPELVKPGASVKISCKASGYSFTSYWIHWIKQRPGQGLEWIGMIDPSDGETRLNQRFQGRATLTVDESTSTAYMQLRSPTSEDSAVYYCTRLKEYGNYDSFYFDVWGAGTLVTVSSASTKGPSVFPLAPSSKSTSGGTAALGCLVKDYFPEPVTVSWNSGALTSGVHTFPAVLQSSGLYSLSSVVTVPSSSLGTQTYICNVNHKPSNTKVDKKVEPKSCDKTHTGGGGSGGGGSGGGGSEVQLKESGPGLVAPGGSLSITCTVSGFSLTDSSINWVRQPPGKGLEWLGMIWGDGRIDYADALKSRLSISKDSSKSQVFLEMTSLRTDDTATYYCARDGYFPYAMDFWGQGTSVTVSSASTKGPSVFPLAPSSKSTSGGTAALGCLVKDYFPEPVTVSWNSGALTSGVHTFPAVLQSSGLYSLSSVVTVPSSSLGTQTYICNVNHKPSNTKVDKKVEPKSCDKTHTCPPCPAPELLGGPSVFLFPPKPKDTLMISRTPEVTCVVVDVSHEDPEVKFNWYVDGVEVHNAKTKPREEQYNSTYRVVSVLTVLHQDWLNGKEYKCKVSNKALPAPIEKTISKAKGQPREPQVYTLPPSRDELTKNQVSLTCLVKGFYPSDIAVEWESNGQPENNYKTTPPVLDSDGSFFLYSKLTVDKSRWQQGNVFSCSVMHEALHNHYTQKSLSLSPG
notes: Control with the two light chains expressed as separate chains; also called Tandem-IgG control; control Tandem-IgG
